Measurements as given in paper PMC11480844 (2024).

B1: H2-Kb / B15 (parent complex)
chain 1: QQQVRQSPQSLTVWEGETAILNCSYENSAFDYFPWYQQFPGEGPALLISILSVSDKKEDGRFTIFFNKREKKLSLHIADSQPGDSATYFCAASAASNNRLTLGKGTQVVVLP
chain 2: DSGVVQSPRHIIKEKGGRSVLTCIPISGHSNVVWYQQTLGKELKFLIQHYEKVERDKGFLPSRFSVQQFDDYHSEMNMSALELEDSAMYFCASSRRADAEQFFGPGTRLTVL
chain 3: not shown
chain 4: IQKTPQIQVYSRHPPENGKPNILNCYVTQFHPPHIEIQMLKNGKKIPKVEMSDMSFSKDWSFYILAHTEFTPTETDTYACRVKHDSMAEPKTVYWDRDM
chain 5: SIINFEKL
B2: H2-Kb / Ed46 (parent complex)
chain 1: AQSVTQPDARVTVSEGASLQLRCKYSYFGTPYLFWYVQYPRQGLQLLLKYYPGDPVVQGVNGFEAEFSKSNSSFHLRKASVHWSDWAVYFCAVGRTGGYKVVFGSGTRLLVSP
chain 2: DSGVVQSPRHIIKEKGGRSVLTCIPISGHSNVVWYQQTLGKELKFLIQHYEKVERDKGFLPSRFSVQQFDDYHSEMNMSALELEDSAMYFCASSPRHSDYTFGSGTRLLVI
chain 3: not shown
chain 4: B1 chain 4
chain 5: SIINFEKL

Variants of: B1
Assay: % of reporter cells activated (NFAT-GFP), raw
Note: test concentration or dose not given here.

Row | ratio to parent | Variant
1 | 0.961 | chain 5 S1Q
2 | 0.601 | chain 5 S1M
3 | 0.898 | chain 5 S1D
4 | 0.727 | chain 5 S1Y
5 | 0.517 | chain 5 S1H
6 | 1.03 | chain 5 S1R
7 | 0.144 | chain 5 S1F
8 | 0.416 | chain 5 S1N
9 | 0.487 | chain 5 S1T
10 | 0.089 | chain 5 N4H
11 | 0.0135 | chain 5 N4S
12 | 0.028 | chain 5 N4V
13 | 0.0132 | chain 5 N4Q
14 | 0.194 | chain 5 N4I
15 | 0.26 | chain 5 N4E
16 | 0.202 | chain 5 N4F
17 | 0.21 | chain 5 N4K
18 | 0.784 | chain 5 L8Q
19 | 0.904 | chain 5 L8R
20 | 0.75 | chain 5 L8G
21 | 0.377 | chain 5 K7P
22 | 0.27 | chain 5 K7N

The next lines start with the variant.

Row | Variant | ratio to parent
23 | chain 5 E6L | 0.0519
24 | chain 5 E6D | 0.956
25 | chain 5 E6N | 0.195
26 | chain 5 E6H | 0.241
27 | chain 5 I2E | 0.915
28 | chain 5 I2F | 0.882
29 | chain 5 I2T | 1.02
30 | chain 5 I2M | 0.89
31 | chain 5 I2W | 0.811
32 | chain 5 I3N | 0.0985
33 | chain 5 I3P | 0.982
34 | chain 5 I3S | 0.601
35 | chain 5 I3D | 0.503
36 | chain 5 I3A | 0.5
37 | chain 5 I3Q | 0.743
38 | chain 5 K7A | 0.359
39 | chain 5 K7C | 0.0553
40 | chain 5 F5I | 0.818
41 | chain 5 F5C | 0.834
42 | chain 5 F5P | 0.829
43 | chain 5 F5G | 0.792
44 | chain 5 F5L | 0.775
45 | chain 5 F5S | 0.969
46 | chain 5 F5K | 0.698
47 | chain 5 F5M | 0.836

Variants of: B2
Assay: % of reporter cells activated (NFAT-GFP), raw

Row | ratio to parent | Variant
48 | 0.00601 | chain 5 N4S
49 | 0.036 | chain 5 N4H
50 | 0.00528 | chain 5 N4Q
51 | 0.0192 | chain 5 N4F
52 | 0.0143 | chain 5 N4E
53 | 0.00323 | chain 5 N4V
54 | 0.0714 | chain 5 N4I
55 | 0.0038 | chain 5 N4A
56 | 0.00595 | chain 5 N4G
57 | 0.0356 | chain 5 N4C
58 | 0.009 | chain 5 N4D
59 | 0.74 | chain 5 K7H
60 | 0.446 | chain 5 K7Y
61 | 0.353 | chain 5 K7V
62 | 0.291 | chain 5 K7T
63 | 0.0863 | chain 5 K7M
64 | 0.689 | chain 5 K7S
65 | 0.814 | chain 5 K7R
66 | 0.349 | chain 5 K7P
67 | 1.06 | chain 5 L8F
68 | 0.703 | chain 5 L8G
69 | 0.718 | chain 5 L8P
70 | 0.977 | chain 5 L8Q

Row | ratio to parent | Variant
71 | 0.691 | chain 5 L8E
72 | 1.01 | chain 5 L8T
73 | 0.918 | chain 5 L8R
74 | 0.783 | chain 5 L8S
75 | 1.08 | chain 5 L8M
76 | 0.618 | chain 5 L8D
77 | 0.697 | chain 5 L8N
78 | 0.918 | chain 5 L8W
79 | 0.912 | chain 5 L8H
80 | 0.886 | chain 5 L8V
81 | 0.675 | chain 5 S1D
82 | 0.151 | chain 5 S1W
83 | 0.39 | chain 5 S1G
84 | 0.223 | chain 5 S1R
85 | 0.235 | chain 5 S1M
86 | 0.018 | chain 5 S1F
87 | 0.0092 | chain 5 S1L
88 | 0.328 | chain 5 S1K
89 | 0.795 | chain 5 S1Y
90 | 0.0873 | chain 5 S1Q
91 | 0.174 | chain 5 S1E
92 | 0.0213 | chain 5 S1I

Second part, the variant before the results:

Row | Variant | ratio to parent
93 | chain 5 E6M | 0.398
94 | chain 5 E6T | 0.0683
95 | chain 5 E6S | 0.249
96 | chain 5 E6Y | 0.119
97 | chain 5 E6D | 1.02
98 | chain 5 E6P | 0.329
99 | chain 5 E6C | 0.0448
100 | chain 5 E6I | 0.0119
101 | chain 5 E6K | 0.746
102 | chain 5 E6H | 0.25
103 | chain 5 E6R | 0.632
104 | chain 5 E6F | 0.0998
105 | chain 5 E6N | 0.464
106 | chain 5 E6V | 0.0112
107 | chain 5 E6G | 0.355
108 | chain 5 E6Q | 0.475
109 | chain 5 F5D | 0.591
110 | chain 5 F5A | 1.01
111 | chain 5 F5N | 0.955
112 | chain 5 F5E | 0.65

Row | Variant | ratio to parent
113 | chain 5 F5T | 1.38
114 | chain 5 F5W | 1.2
115 | chain 5 F5V | 1.05
116 | chain 5 F5Y | 1.3
117 | chain 5 F5K | 0.845
118 | chain 5 F5I | 1.02
119 | chain 5 F5Q | 0.757
120 | chain 5 F5G | 0.916
121 | chain 5 F5P | 1.17
122 | chain 5 F5H | 1.23
123 | chain 5 I2H | 0.785
124 | chain 5 I2L | 1.38
125 | chain 5 I2E | 1.11
126 | chain 5 I2K | 1.12
127 | chain 5 I2Q | 0.775
128 | chain 5 I2D | 1.37
129 | chain 5 I2M | 1.17
130 | chain 5 I2G | 1.2
131 | chain 5 I2W | 0.693
132 | chain 5 I2C | 1.26

Row | Variant | ratio to parent
133 | chain 5 I2V | 1.4
134 | chain 5 I2S | 1.4
135 | chain 5 I2P | 1.23
136 | chain 5 I3N | 0.34
137 | chain 5 I3F | 0.726
138 | chain 5 I3L | 1.05
139 | chain 5 I3T | 0.301
140 | chain 5 I3C | 0.689
141 | chain 5 I3Q | 0.383
142 | chain 5 I3A | 0.139
143 | chain 5 I3W | 0.64
144 | chain 5 I3P | 0.669
145 | chain 5 I3S | 1.06
146 | chain 5 I3V | 0.724
147 | chain 5 K7F | 0.0438
148 | chain 5 K7D | 0.0219
149 | chain 5 K7A | 0.383
150 | chain 5 K7G | 0.341
